The target in assay [1] is T1, DNA binding domain of recombinant rat androgen receptor (AR) / calreticulin (p60) (Homo sapiens, UniProt P27797).
T1 construct: endogenous in cells
T1 sequence (P27797 18-417): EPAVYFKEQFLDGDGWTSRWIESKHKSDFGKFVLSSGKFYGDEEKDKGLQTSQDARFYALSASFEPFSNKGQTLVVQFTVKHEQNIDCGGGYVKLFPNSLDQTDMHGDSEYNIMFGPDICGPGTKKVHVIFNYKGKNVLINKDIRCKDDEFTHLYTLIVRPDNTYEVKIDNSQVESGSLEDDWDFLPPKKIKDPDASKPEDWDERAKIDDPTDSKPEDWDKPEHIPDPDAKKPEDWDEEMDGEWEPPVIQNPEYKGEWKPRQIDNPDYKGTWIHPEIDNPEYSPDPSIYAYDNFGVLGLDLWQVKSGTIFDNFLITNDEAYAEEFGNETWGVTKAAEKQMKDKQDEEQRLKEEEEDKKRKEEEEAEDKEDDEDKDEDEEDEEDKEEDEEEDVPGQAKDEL
Nature of the assay: Gel mobility shift (gel retardation) assay: calreticulin (p60) inhibition of AR-ARE binding and its reversal by peptides/antibody. The settings on record: for Reversal of p60 (calreticulin) inhibition of AR-ARE binding: peptide, antibody or IgG pre-incubated with p60. The procedure:
To determine whether p60 (calreticulin) could directly modulate the binding of nuclear hormone receptors to DNA via the KXFFX^1R [SEQ ID NO:1] sequence, the interaction of the DNA binding domain of recombinant androgen receptor with its hormone responsive element was analyzed by carrying out gel mobility shift assays.
(§1) As described in Rennie et al., 1993, DNA binding domain of recombinant rat androgen receptor was prepared as a GST-fusion protein using the pGEX-3X vector and purified by glutathione-agarose affinity chromatography. p60 (calreticulin) was purified by affinity chromatography on KLGFFKR-sepharose [SEQ ID NO:7], followed by gel electrophoresis as described in detail in Rojiani et al., 1991. […] Recombinant calreticulin (GST-fusion protein) was prepared as described by Baksh and Michalak, 1991. Gel retardation assays were carried out as described by Rennie et al., 1993. To analyze the effect of p60, or recombinant calreticulin, on receptor-DNA binding activity, the AR was pre-incubated with p60 for 30 min at 4° C. To analyze the effects of synthetic peptides, anti-calreticulin antibody, and non-immune IgG on p60 inhibition of AR-ARE binding, the peptide, antibody or IgG were pre-incubated with p60 for 30 min at 4° C. The androgen receptor preparation was then added to these mixtures and further incubated for 30 min at 4° C.
Affinity purified DNA binding domain of the recombinant rat androgen receptor (AR) was pre-incubated with or without the indicated concentrations of purified p60 at 4° C. for 30 min. After this pre-incubation the reaction mixtures were incubated with ^32P-labeled 26 base pair ARE (Rennie et al., 1993) (androgen response element), and analyzed by gel retardation assay. The sequence of the ARE used was [SEQ ID NO:28]:
Amino acids in the KXFFX^1R [SEQ ID NO: 1] sequence were modified. Androgen receptor and calreticulin were incubated in the presence of the modified peptides and allowed to interact with an oligonucleotide containing the androgen response element (the method of this assay is described in Example 3). The interaction was analyzed by gel mobility shaft assay (FIGS. 5A-5C).

For assay [2], the system named is retinoic acid receptor mediated gene transcription (bRARE luciferase) in P19 cells. Nature of the assay: RARE-driven luciferase reporter in P19 cells after peptide preincubation. The class given is cell-based, mouse. The settings on record: for Luciferase × 10^6: P19 cells, 10^-7 retinoic acid. The procedure:
In order to test whether a peptide based on the calreticulin-binding KXGFFKR [SEQ ID NO:30] sequence modulates retinoic acid induced gene transcription in live cells, the p19 cells were transfected with a reporter vector consisting of a retinoic acid response element fused to the luciferase gene.
Cell culture conditions: Mouse embryonic carcinoma (P19) cell, grown in 60 mm dishes in 7.5% donor calf serum, 2.5% fetal calf serum alpha MEM (Gibco/BRL) were treated with the peptides KLGFFKR [SEQ ID NO:7] or KLRFGFK [SEQ ID NO:29] for three hours or overnight for 20 hours at 37° C., 5% CO2. With few exceptions, KLXFFKR [SEQ ID NO:31] is the peptide sequence specific within the binding domain of all steroid receptors. KLRFGFK [SEQ ID NO:29] is the scrambled peptide of the above sequence. Subsequently each plate was washed four times with serum free alpha MEM to remove excess peptides and replenished with fresh serum containing media. Cells were then transfected by standard calcium phosphate precipitation method (Current Protocols in Molecular Biology 9:1) with 1 microgram bRARE in pTKluc, 1.5 microgram pRSV bgal, 3 microgram pKS (carrier) per 60 mm dish. Following a 16 hour incubation at 37° C. 5% CO2, each plate was washed two times with serum free alphaMEM and replenished with serum containing media supplement with […] retinoic acid (Sigma R2625) and 800 microgram/ml G418 (Gibco 1181-031). Following another 24 hours incubation cells were washed three times with PBS and each 60 mm dish of cells was lysed in 100 microliters of 1 % triton X100, 100 mM KPO4 pH7.8, 1 mM DTT. Cell lysates were stored at −70° C. Prior to luciferase/bgal assays, cell debris were spun out on an Eppendorf microfuge (5415C) at 4° C. full speed for 20 minutes.
Luciferase assay: All reagents were equilibrated to room temperature and each sample was assayed independently. Ten microliters of cell lysate was incubated with 50 microliters of luciferase reagent (Promega E1483) in an Eppendorf tube. Thirty seconds later, the sample was immediately counted in a Beckman scintillation counter (LS6000IC) for one minute using an open window. Standards in the range of 0.001 nanogram to 1.0 nanogram was used to establish the linearity of the assay.
Beta-gal assay: Assay was done in a microtitre plate (Linbro 76-232-05). Ten microliters of cell lysate were mixed with 90 microliters of bgal reagent in 88 mM phosphate buffer, 11 mM KCl, 1 mM MgCl2, 55 mM 2ME, 4.4 mM chlorophenol red b-D-galactopyranoside (BMC 884-308). Incubation period varied from 30 minutes to 2 hours at 37° C. Results were read at 570 nm in an ELISA reader (Dynatech MR5000).

The target of assay [3] is T2, calreticulin as used in the gel mobility shift assays of Examples 7 and 15 (Homo sapiens (Human), UniProt P27797 18-417).
T2 construct: Could be m1 or m2
T2 sequence: T1 sequence (P27797 18-417)
Nature of the assay: gel mobility shift, PhosphorImager; reversal of calreticulin inhibition of RAR/RXR binding to its DNA response element; competitor RAR/RXR. An excerpt: (§2) This Table relates to the retinoic acid receptors (RAR/RXR) and the androgen receptor (AR). […] The data was quantified using a Phosphormager (Molecular Dynamics).

Assay [4] deals with T2, calreticulin as used in the gel …. Kind of assay: gel mobility shift; reversal of calreticulin inhibition of receptor-DNA binding; competitor RXR/RXR, reference RAR/RXR. The procedure: (§3) Example 7 Peptides Having Differential Specificities for Disrupting Different Hormone Receptor-Calreticulin Interactions To identify peptides having different specificities, we utilized gel mobility shift assays (see Example 3) in which known concentrations of purified recombinant androgen receptor, estrogen receptor, retinoic acid receptors (RAR/RXR and RXR/RXR) (Shago et al., 1994) and vitamin D receptor (Xu et al., 1993) were incubated with known concentrations of either recombinant calreticulin, or calreticulin purified by affinity chromatography on a KLGFFKR affinity column [SEQ ID NO:7] (see Example 3) in the presence of the respective ^32P-labelled DNA response elements and known concentrations of synthetic peptides based on the KXFFX[1]R [SEQ ID NO:1] sequence. In addition to the linear peptides, some peptides were cyclized by adding cysteine residues at either ends.

Assay [5] has the same target. Kind of assay: gel mobility shift; reversal of calreticulin inhibition of receptor-DNA binding; competitor VDR/RXR, reference RAR/RXR. As to the method:
as §3

For assay [6] the target is unchanged. Nature of the assay: gel mobility shift, PhosphorImager; reversal of calreticulin inhibition of AR binding to its DNA response element; competitor AR. The procedure: as §1, with “To analyze the effects of synthetic peptides, anti-calreticulin antibody, and non-immune IgG on p60 inhibition of AR-ARE binding, the peptide, antibody or IgG were pre-incubated with p60 for 30 min at 4° C.” left out
as §2

The subject of a further assay is AP-1. Nature of the assay: Binding of AP-1 to DNA.
The mark [7] stands for this setting: overnight preincubation with 10 micromolar peptide.
Where [8] appears, read: overnight preincubation with 50 micromolar peptide.
[9] abbreviates: overnight preincubation with 100 micromolar peptide.

As for KLRFGFK [reference compound], the “Reversal of p60 (calreticulin) inhibition of AR-ARE binding” value in assay [1] is recorded as “much less effective”. The Corrected values luc/bgal is 42.04 in assay [2] (setting [7]), 41.34 in assay [2] (setting [8]) and 32.26 in assay [2] (setting [9]). The “Luciferase × 10^6” value is 14 × 10^6 in assay [2] (setting [7]), 16 × 10^6 in assay [2] (setting [8]) and 14 × 10^6 in assay [2] (setting [9]).

With KLGFFKR, the “Reversal of GST-calreticulin (recombinant calreticulin) inhibition of AR-ARE interaction” value in assay [1] (calreticulin 2 μg, peptides at 50-fold molar excess) is recorded as “Reversal of this inhibition”. In addition, the “Reversal of p60 (calreticulin) inhibition of AR-ARE binding” value in assay [1] is reported as “reversed”. The “Effect by itself on the receptor-DNA interaction” value in assay [1] (without p60, data not shown) is “neither KLGFFKR peptide [SEQ ID NO:7], anti-calreticulin antibody, nor non-immune IgG by themselves had any effect”. In addition, the results for the Corrected values luc/bgal in assay [2] (setting [7]) and in assay [2] (setting [8]) were 32.91 and 45.15, respectively. Also, the figures for the “Luciferase × 10^6” value in assay [2] (setting [7]), in assay [2] (setting [8]) and in assay [2] (setting [9]) were 13 × 10^6, 20 × 10^6 and 28 × 10^6, respectively. Further, the “Luciferase activity (retinoic acid receptor mediated gene transcription), in words” value in assay [2] (pre-incubation of P19 cells with peptide) is “dose-dependent increase in luciferase activity”.

B1: KLRFGFK scrambled peptide (peptide)
peptide: KLRFGFK
notes: Control
In the case of B1, in assay [3], the “% Reversal” value came out at 34%.

B2: KLGFFKR synthetic peptide (peptide)
peptide: KLGFFKR
notes: Used free in solution and immobilised on sepharose; also called KLGFFKR-sepharose
Take B2: the “fold potency against RXR/RXR compared to RAR/RXR” value in assay [4] was 4 fold. The “fold potency against VDR/RXR compared to RAR/RXR” value in assay [5] was determined as 10 fold. Moreover, the figures for the “% Reversal” value in assay [6] and in assay [3] were 62% and 100%, respectively.

B3: KLDFFKR peptide (peptide)
peptide: KLDFFKR
With B3, the “% Reversal” value is 0% in assay [6] and 73% in assay [3].

B4: KLGFFKG peptide (peptide)
peptide: KLGFFKG
As to B4, the entries for the “% Reversal” value in assay [6] and in assay [3] were 63% and 22%, respectively.

B5: KLGFRKR peptide (peptide)
peptide: KLGFRKR
B5: the figures for the “% Reversal” value in assay [6] and in assay [3] were 6% and 20%, respectively.

B6: KLGFFGR peptide (peptide)
peptide: KLGFFGR
In the case of B6, the “% Reversal” value in assay [6] was 85%; in assay [3], 65%.

B7: GLGFFKR peptide (peptide)
peptide: GLGFFKR
In the case of B7, the “% Reversal” value was determined as 100% in assay [6] and 45% in assay [3].

B8: KLGRFKR peptide (peptide)
peptide: KLGRFKR
As to B8, the results for the “% Reversal” value in assay [6] and in assay [3] were 10% and 24%, respectively.

B9: KGFFKR peptide (peptide)
peptide: KGFFKR
notes: also called 409
For B9, in assay [3], the “% Reversal” value came to 100%.

B10: KVFFKR peptide (peptide)
peptide: KVFFKR
notes: also called 285; androgen receptor derived peptide
Consider B10, for which the “% Reversal” value in assay [6] turned out to be 100%.

B11: p60 (calreticulin): 60 kDa protein, calreticulin, purified by affinity chromatography on KLGFFKR-sepharose (protein)
chain: T1 sequence (P27797 18-417)
Regarding B11, the “Effect of protein on AR-ARE (receptor-DNA) complex formation” value in assay [1] (protein pre-incubated with AR 30 min at 4° C.) is recorded as “dose-dependent inhibition in the formation of this complex”. Moreover, in the assay with AP-1, the “Effect on binding of AP-1 to DNA” value is “did not effect the binding of AP-1 to DNA”.

The record behind these values is US6518397B1, “Pharmaceuticals for modulating hormone responsiveness” (priority 1995, dated 2003).
